Assay results: the DeepSol protein solubility set

Assay: soluble on expression in E. coli; label from the status in PepcDB or PDB records

Sequence	soluble on expression in E. coli
MGSDKIHHHHHHVEQTMFTNEVILSWLQYFSKNAPINLAKLKMLDITGKNKNLIPTVMSNRAVLVFTDAGHPDIFYDMWNAELGDCDIWYNEGSEPSGEIKHDKVSDMINRGINASAAMLILNPNAATNYHIGMENSRFSCGSVQYVCREVRAVIMNKLNLGDQDNICIISGESIAVEAAMIAAEGSVIAVEYDRRDRNTMQENVKKFDLNNVTIVESLENGIPDKLPVPDIAFIVGSPRIGSEIKALLSINPVMDFVIYTLDFEVLMSLPALFRENGLERTEAIHVAVSRVNSKKMVEPFPAPWLISGRSIKG	not soluble
MPVGTAEGIYKRRAIGGTGRPECLPYHFHEMQGALAHRGALDYSALPVQGASWSDLDPLEFERFRRFIRESRGQGDKSLLDLPDVELAKALGAVKANHEVRTVRVLGLLLFGKEEALQRFIPTHEVAFQVLRGTRVEVNDFFRWPLLRTMEELLTRFRAWNHEEEVSFGLMRIGVPNYSERAFREGLANALIHRDYTRLGAVHVQWHEDRIEISNPGGFPEGIHLGNLLVAPPRPRNPLLADAFKRAGVVERTGRGIDIIFEEQLRNGRPAPSYEQSTPESVVLVLPGGEANLNFVRLIVEEGQARRPLRLDELLVLNGLWQERQLTTKEAARLIQKTEATARAVLERLVETGLIEARGTGRGRTYHLSASTYRRLGEEAAYVRLKGFEHQQMEQMVLEYVRAHGRITRREAAELCRIGPYQATRLLKRMVEQGKLTPHGVGKGTWYALRS	soluble
ELNHRVKNTLATVQAIASLTVNSSTSLDSFRKSFDARLFALSQARAEWMSTELADLLAQLQDVNGGQHRITFTGDP	not soluble
MLSTVFLLATLAASAAADGYSCARNTLINPPQDLSKPYYYPETWRENMEPPQYAPNQKCNWKINVPQGMYATVIFYKKTKYEIGIQCAYPGKDLEYINDYEQSPYIFTSPQFQVDLKVGDKPGAFSFKVVWSKYPPGSAMNIELDGIHSISGVASSFYTTYTAINQVMIVGFSVPDVDTNLLRQSAIYDGDSVNAKFLGNLFDALEGQIVSTGNKLTIYTFGLENQVDNTLFMGLDTKAAGDIEQYTGLNCPVDRTRGCSIILHSYFYATAEARISRQPDYLMLPDSFPYNATLKIYGETLQDSSLFAAVNKSNYQTMFPMKVTNSLKIYHLDHDIVSIDVTNNADEAKWSTVYDGRNIKVQSMDYGRTSFYQDTMETFTTEPNTQMYFKFNVKYFDVNGPTSLAIKVYNNAKIVYSETYTATNLPTPYNVRVYGDKMDINYQTFGNYTQGFEVNIVTTKNG	not soluble
MSKLDTIFEVVISRDKMEATLKQHEPFPEDHPVTKDELLSFMKEHGVVFGVKESVIDQVVKSEKGLTSSVKVAEGLQPQNGKHGYLQPIQHEEEERDVHSISAMNLRDVLSIPEVKQGQVIGKKIPATLGEDGMNVLGEPIKAKPGREFVLRPGKNSTVDEANGTLVAAVDGQMSVDKRTIHVYPVYEVPGDLTMKHGNISFIGNVIIRGHVPDGFVVKAGGDIRVFGTVEGATLEAGGSIFVGAGIVGQNRGCIRAEGGLHTTFINQAKVEVGGDIEVVQSILHSTCTAGGKIICTRGKGNIVGGALSAEDHIYAKEIGNSMHTKTSLYIGAKEKWVTKEKQLAKEYKTTEEELKKLSLLLQKFQELEKENGLTANGRVQRLRVKNTLVQVKEKHEQIKEQLEDVQENLTLNQAGSIVVEQTLYPNVSAHFGKYRRKIVSNHSNVKLSLVDQEIQLSSRLEHHHHHH	soluble
MKYLHTEKDYLDLLLAVKRKFDYQRSIVPYIVYFLLKTGMRFGELVALTWNEVDFDRGLLKTYRRYNTLSHKFVPPKNKTSIRMVPIDEECIKILRLLQTEQERANMELGIKNRYRMIFQHFGYIHSVPDIASVNKALSVLLNELDIYPIITTKGARHTYGSYLWHKGFDLGVIAKILGHRDISMLVEVYGHTLEEKIFEEFNQIRDIWKDCSLEHHHHHH	not soluble
RHNLIQRKRELDKQNELYRAIISASFAFVFQIDTEARFSFVSPSVEDFTGYRPDMLNGEPISILGSDEQAIKEARDYLARVLNDGEAIQVRGHPIETRSGNTVYGDIRAEPIYEPSVASSARTTENIIGAQVMVRDAS	not soluble
SNAMVQAQTRDQIVAAADELFYRQGFAQTSFVDISAAVGISRGNFYYHFKTKDEILAEVIRLRLARTAQMLADWQGTGDSPRARIASFIDLMIMNRAKITRYGCPVGSLCTELSKLDHAAQGQANGLFTLFRDWLQRQFAEAGCTTEAPALAMHLLARSQGAATLAQSFHDEGFLRSEVADMHRWLDNTLPMTT	soluble
MYSGARQGVISGKVTHHNEVFYEFFDKDYKYLFGKVKDIFTDVGAWVEYNVEKVQSHPKNCLHFAQNVNTEVKRTNAPTCDVFSSNRFQFDVREFNKVDFFQFDNADRQLSFKGTIRFNSNKNQFYHEYYGDVLVGEAEKLIRFGINEIDVMMNLYRSDEYTRGPHWYVKHYINKGKSYNINGYLSINGFVLRGPGGVVRNKNQVNIPPDALRPNNPVPNLSNGTSSQELAAAPNRNNFPTYATQRPRRNSDWDDEEPQTTAAPAGTSNSTAAASRPQVGDGKTGFRAFGGDAAPQSRGFDDGAIQRRAFGGLTTAPAAAPNRNNFPTYATQRPRRNSDWDDEDPQTTAAPAGTFNSAAASFRPQVGNGKAGSRAFGGDTAPQRSGLDDGATQRRAFEGLTIAPAAASNRNSFPTFATQRPRRNSDWGDEEPETTVAPAGKSNSTAAASRPQVGNGKTGSRPFGGDTAPQRRGLDDGAIQRRAFGGLTTAPAAAPNQNNFPTFATQRPRRNSDWDDEEPQATDAPAGTFNSAAASFRPQVGNGKAGSRAFGGDTAPQTSGLDDGAIERRAFGALATAPREVVLGGERAAGQLRPRGPESTIQPRRVPQSRQFGGVSATSNDPTTPEPRRINETPRVLLPPQSKGRRVDS	not soluble
MAHHHHHHMRTAVGSGAGASAAARAIPTAVPLTVADIDALARRDGVVSSDAVVSQQGTVASSRSVAELQAVVQSLQQENAELRERLERDRRQMLRSAMDVRDLHASQKQIRQRDLDRIEWLYCDNQRLRKILEMQGSAQELAGVLSPQPPAAAPATAHRPSLEGLRPLPEVPVELNAIEEEMPALEAEVVHLRGALVLKTQHLDDLWGHAERAEGYVQDLLQKLEHVQGIVREESDSCARRSKHLESTDQPLEDIVSFVSLRDHSSATQLTGPSSTTPFPFATVGRCEHIKRAAAVHGG	not soluble
FKAHCRRSVEGDTMLSLKAVSPTRLLKNKFYQDVFAAEQRGASVEELRELLGRGRAKQGIFEGDLHEGELEIGQAVSQISHAETVAEIMVDLVDGYKRSLAGMPTEI	not soluble
MSLEDSKASLETRNFYMNRDFRDGPGQSKREEWAQGFILNLQSGYTQGTVGFGLDAMGMLGVKLDSGRGRSGTGLLPKDSDGRAPDTYSKLGLTAKVKVSQSELKVGTLIPKLPSVQPNNGRIFPQIFEGALLTSKEIKDLGFTAGRLEKTKIRDSSDSEDLALNDKNGRFAGVSADHFDLGGLDYKLTDQLTASYHYSNLQDVYRQHFVGLLHSWPIGPGELTSDLRFARSTDSGSAKAGGIDNKSLNGMFTYSLGNHAFGAAWQRMNGDDAFPYLEGSNPYLVNFVQVNDFAGPKERSWQLRYDYDFVGLGIPGLTFMTRYVKGDNVELAGQSGEGREWERNTELQYVFQSGALKNLGIRWRNATFRSNFTRDIDENRLIVSYTLPIWEGHHHHHH	soluble
CSPVRERRLEHQLEPGDTLAGLALKYGVTMEQIKRANRLYTNDSIFLKKTLYIPILTEPRDLFN	soluble
MGSDKIHHHHHHMIDSIRVEGFRGLKELELSSLRRINVIVGRNNSGKSTLLEALSLFLGSSDPGTFGNVLHEILIWRGWYGIQTVDDLFYNGGDSFSISSTGKTLEALNSKHSLEFKLNGEPFYKIDRESIRRLASQAVLLARFSPKENFEFLTPLTFRRFGYAESLYSYAYERKVVKDSIKVLNEAYPEVEGFSPLLKEDNWVLYVETKYGVYPYYLMGEGFKSAMIISFLSSLLRDGVLLIDSAEAFHHPKSLKVMIQTLVRGSEKNNVQVFLTTHSLELLDLMLEMGRDGFVIYMKNVEGRIEVESIEFQRASELRESIGVDLRGF	not soluble
MVIWFFYGFRKIMHLSLKRIIVKCKMSQLDRTSLIQYFNSNGVLISPEALDKLIKYSSSSLIEDLIKNSDGYIDEKYVERYVSRPKVRNDYEVYLPDVRFNASIEDFRKMFVSKYEKLSKIITSSSSMRGSISIKTAKRSQGEVKVVGMVSEVSMTKNGHKRIVIEDLDDSITAIVMKDRGPVNEIILEDEVIGIIGSVSQSSKDPVIFVNEIIRPDIPYRVIDEEKHEPVYVASISDIHVGSKTFRKNEFEAMVRWISGSDPDASRVKYLILSGDVVDGIGVYPDQENDLEILNPLEQYANLAEYLVDVPEDVKVFVMPGNHDTVRLSEPQPVFPGKIRDLFEPNVAFLPNPYNLKLEGKNVLVYHGMSLNDMIELIPGANYDSIGKAIEAILVRRHLSPKYGGNTPMIPSAVDYHVIEEVPDIFITGHIHSHYIGNYKGVRYVNSSTWQSQTEYQKMMNFNPKPSKLTLFDLYSRSVIVKDFDTTLLEHHHHHH	not soluble
MARFTDKVAIITGSSNGIGRATAVLLATDGAKVTITGRDAARLEETRQAILKAGISATNVNSVVADVTTAEGQDLLISSTLDKFGKINILINNAGANIPDSQGQTRTKCSIENLTKMFQLNLQSVVEMVQKVRPHLAKTRGEIVNISSIGAGPAAQPASPYYSSAKAALDQYSRCAAIDLISEGIRINVVQPGFVSTGFSTAARGLSADESVKFYDLMGSLPHCIPAGYCGQPDHLASVIAFLVDRKVSEYIVGQTIIADGGSSLVIGCHAPRQ	not soluble
MPAVQETIRQVREIDVDQYKYGFETKIKTDKAPKGLNEDIIRFISAKKCEPEWMLKWRLQAFRRWLTMQEPDWARIEYPKIDFQELHYYAAPKNHTGPKSLEEVDPELLATYEKLGIPLKEQEILAGVRKQSDPSTFDESVYASGQVAVDAVFDSVSVVTTFKKELARAGVIFCSISEAIIEHPALINQYLGTVVPVGDNYYAALNAAVFTDGSFVYIPKGVRCPMELSTYFRINERNTGQFERTLIIADEDSYVSYLEGCTAPQRDENQLHAAVVELVALKNAEIKYSTVQNWYPGDKEGNGGIYNFVTKRGDCRGDNSKISWTQIETGSAITWKYPSCLLRGDNSRGEFYSIAVANGHQQIDSGTKMIHLGKNTSSRIVSKGISAGFSNNTYRGQVTAHRKAHNARNFTQCDSLLIGNDCGAHTVPYIEAKNATAQFEHEATTSKISDDQLFYVMQRGIPEEEAIALIVNGFVKEVIQKLPMEFAVEAQKLIGISLEGSVG	not soluble
MKTTLLSAVLASTLLVCAPATVLAQPATSSAPAAQGAATKTVIDSSTRILSTLDQRRAEFRGNPAALRQYINGELNKAFDRDYSARLVLGVHGRGASDADVKLFADALAENLMQRYGTALLNFEGKPTFRAKSESALPGNRGVKVSTDLLRAGNDPTPVDYLMRNSGGQWKIFDVMIEGISYVQTFKTQFDGPLREKGIAKVAADLRSGNLQVGATPANGQLEHHHHHH	soluble
MTADRPALRTGDRDTRLSFGSNLSSFTDYLRGHAPELLPENRIGHRSHSTRGGDGMESGDLAPHGTTIVALTYKGGVLLAGDRRATQGNLIASRDVEAVYVTDEYSAAGIAGTAGIAIELVRLFAVELEHYEKIEGVPLTFDGKANRLASMVRGNLGAAMQGLAVVPLLVGYDLDADDESRAGRIVSYDVVGGRYEERAGYHAVGSGSLFAKSALKKIYSPDSDEETALRAAIESLYDAADDDSATGGPDLTRGIYPTAVTITQAGAVHVSEETTSELARRIVAERTEQGGSAR	soluble
MIGMMNSGAESSVEFYAAARQSSLYEPRKKSSQSRTYTPEGRVLVNGAPLSPTLDPQDLWKNMIIKTAAQKMIRENCEKKETGPMATIRRLSEKLKLKKSKSSAAMMNLDLDLDQKIPEVSEIESSSTTAVPQSPQQFVTNIRIEEANPVFFVQQSESLDRPHMLFEETSVLARLLEESSQIDKMEKDFAEKDSGKGSIDDDSVVVHKL	not soluble
